In assay [1] the target is T1, rHuman HGF R/c-MET/Fc Chimera, CF (R&D Systems Cat#358-MT/CF) (human, UniProt P08581 25-932).
T1 construct: Bought Fc chimera; also called HGF R/Fc; hepatocyte growth factor receptor; Fc part of the bought chimera not given
As to the kind of experiment: Multispot ECL (MSD) titration; antigen spotted on plate; Fab 392.5 nM; blank spot 338.

For assay [2], the target named is T2, rHuman IGF-1 sR (IGF-1 sR), CF (R&D Systems Cat#391-GR) (human, UniProt P08069 31-932).
T2 construct: Bought soluble receptor; also called insulin-like growth factor-1 soluble receptor
The description is as above.

The target in assay [3] is T3, rHuman ErbB2/Fc Chimera, CF (R&D Systems Cat#1129-ER) (human, UniProt P04626 23-652).
T3 construct: Bought Fc chimera; also called human epidermal growth factor 2 receptor; Fc part of the bought chimera not given
The description is as above.

The target of assay [4] is T4, rHuman Notch-1/Fc Chimera, CF (R&D Systems Cat#3647-TK) (human, UniProt P46531 19-526).
T4 construct: Bought Fc chimera; Fc part of the bought chimera not given
Described as above.

Assay [5] concerns the target T5, rHuman P-Cadherin/Fc Chimera, CF (R&D Systems Cat#861-PC) (human, UniProt P22223 108-654).
T5 construct: Bought Fc chimera; Fc part of the bought chimera not given
The assay is described as above.

The target of assay [6] is T6, rHuman CD44/Fc Chimera, CF (R&D Systems Cat#3660-CD) (human, UniProt P16070 21-220).
T6 construct: Bought Fc chimera; Fc part of the bought chimera not given
The description is as above.

Assay [7] concerns the target T7, rHuman Erythropoietin R/Fc Chimera, CF (R&D Systems Cat#963-ER) (human, UniProt P19235 25-250).
T7 construct: Bought Fc chimera; also called EPO R/Fc; EPO R; Fc part of the bought chimera not given
T7 sequence (looked up): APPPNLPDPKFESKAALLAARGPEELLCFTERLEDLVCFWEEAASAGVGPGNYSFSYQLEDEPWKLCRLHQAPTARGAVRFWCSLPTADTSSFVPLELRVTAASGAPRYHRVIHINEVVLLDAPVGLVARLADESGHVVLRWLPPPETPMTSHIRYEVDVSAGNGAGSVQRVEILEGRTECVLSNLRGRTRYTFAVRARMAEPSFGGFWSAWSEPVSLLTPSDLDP
The description is as above.

In assay [8] the target is T8, Recombinant Human DLL4 (R&D Systems Cat#1506-D4/CF) (human, UniProt Q9NR61 27-524).
T8 construct: Bought recombinant protein; also called delta-like protein 4; rHuman DLL4
The assay is described as above.

Assay [9] has as its target T2, rHuman IGF-1 sR (IGF-1 sR), CF (R&D …). The experiment in a line: Multispot ECL (MSD) titration; antigen spotted on plate; Fab 232.5 nM; blank spot 460.
Assay [10] addresses T3, rHuman ErbB2/Fc Chimera, CF (R&D …). Described as above.
Assay [11] deals with T4, rHuman Notch-1/Fc Chimera, CF (R&D …). Described as above.
For assay [12], the target named is T5, rHuman P-Cadherin/Fc Chimera, CF (R&D …). The assay is described as above.
Assay [13] has as its target T6, rHuman CD44/Fc Chimera, CF (R&D Systems …). The assay is described as above.
Assay [14] concerns the target T7, rHuman Erythropoietin R/Fc Chimera, CF …. Described as above.
Assay [15] has as its target T8, Recombinant Human DLL4 (R&D Systems …). Described as above.
Assay [16] addresses T9, rHuman Notch-1/Fc Chimera, CF (R&D Systems Cat#3647-TK) (human, UniProt P46531 19-526).
T9 construct: Bought recombinant protein; Fc part of the bought chimera not given
The experiment in a line: Multispot ECL (MSD) assay, antigen spotted on plate, Fab at 0.312 µM; blank spot 1977.

Assay [17] addresses T10, rHuman HGF R/c-MET/Fc Chimera, CF (R&D Systems Cat#358-MT/CF) (human, UniProt P08581 25-932).
T10 construct: Bought recombinant protein; also called HGF R/Fc; hepatocyte growth factor receptor (HGF R/c-Met); Fc part of the bought chimera not given
Described as above.

The target in assay [18] is T11, rHuman Erythropoietin R/Fc Chimera, CF (R&D Systems Cat#963-ER) (human, UniProt P19235 25-250).
T11 construct: Bought recombinant protein; also called EPO R/Fc; Epo R; Fc part of the bought chimera not given
T11 sequence (looked up): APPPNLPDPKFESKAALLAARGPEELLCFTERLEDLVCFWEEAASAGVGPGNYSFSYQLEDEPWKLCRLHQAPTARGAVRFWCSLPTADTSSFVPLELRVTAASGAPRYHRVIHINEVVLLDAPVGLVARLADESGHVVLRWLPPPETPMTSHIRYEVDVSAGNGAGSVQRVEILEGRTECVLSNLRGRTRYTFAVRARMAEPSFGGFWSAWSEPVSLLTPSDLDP
The description is as above.

This passage reports ECL signal results from patent US20120316071A1 (published 2012).

B1: Fab VH1-46_IGHD3-10*01_IGHJ4*01 & O1_IGKJ1*01 (Fab, V domains shown)
VH: QVQLVQSGAEVKKPGASVKVSCKASGYTFTSYYMHWVRQAPGQGLEWMGIINPSGGSTSYAQKFQGRVTMTRDTSTSTVYMELSSLRSEDTAVYYCAREYYYGSGSYYNDYFDYWGQGTLVTVSS
VL: DIVMTQTPLSLPVTPGEPASISCRSSQSLLDSDDGNTYLDWYLQKPGQSPQLLIYTLSYRASGVPDRFSGSGSGTDFTLKISRVEAEDVGVYYCMQRIEFPSWTFGQGTKVEIKR
notes: Germline library Fab expressed in E. coli; VH was cloned into Plasmid A (CH1 constant region, His6 and Flag tags); The kappa VL was cloned into Plasmid C (kappa CL)
For B1, the ECL signal in assay [1] is 581; in [2], 466; in assay [3], 539; in assay [4], 749; in assay [5] it was 459; in assay [6] it was 498. For the same molecule, the ECL signal in assay [7] was determined as 5860; in [8], 735.

B2: Fab VH1-46_IGHD6-13*01_IGHJ4*01 & O1_IGKJ1*01 (Fab, V domains shown)
VH: QVQLVQSGAEVKKPGASVKVSCKASGYTFTSYYMHWVRQAPGQGLEWMGIINPSGGSTSYAQKFQGRVTMTRDTSTSTVYMELSSLRSEDTAVYYCAREGYSSSWYDYFDYWGQGTLVTVSS
VL: DIVMTQTPLSLPVTPGEPASISCRSSQSLLDSDDGNTYLDWYLQKPGQSPQLLIYTLSYRASGVPDRFSGSGSGTDFTLKISRVEAEDVGVYYCMQRIEFPSWTFGQGTKVEIKR
notes: as for B1
In the case of B2, the ECL signal was 569 in assay [9]; 779 in assay [10]; 778 in [11]; 655 in assay [12]; 607 in [13]; 1470 in assay [14]. In [15], the ECL signal came to 3590.

B3: Fab VH1-46_IGHD7-27*01_IGHJ2*01 & L6_IGKJ1*01 (Fab, V domains shown)
VH: QVQLVQSGAEVKKPGASVKVSCKASGYTFTSYYMHWVRQAPGQGLEWMGIINPSGGSTSYAQKFQGRVTMTRDTSTSTVYMELSSLRSEDTAVYYCARANWGYWYFDLWGRGTLVTVSS
VL: not shown
notes: Germline Fab made in E. coli; VH was cloned in Plasmid A (CH1 constant region, His6 and Flag tags) and the kappa VL in Plasmid C (kappa CL); Only the variable domains are tied to this Fab by name
On to B3, for which the ECL signal was found to be 4460 in assay [16], 4690 in assay [17] and 5020 in assay [18].
